A word on the IC50: it is the concentration that gives 50% inhibition. Low readings indicate greater potency, high ones weaker potency. As usually defined, the Kd is the equilibrium constant for the complex coming apart.

The chains are these.
T1: recombinant human TNFR2-hFc protein (human, UniProt P20333 23-257)
T1 construct: also called hTNFR2-Fc; human TNFR2-Fc; not shown: human Fc
T1 sequence: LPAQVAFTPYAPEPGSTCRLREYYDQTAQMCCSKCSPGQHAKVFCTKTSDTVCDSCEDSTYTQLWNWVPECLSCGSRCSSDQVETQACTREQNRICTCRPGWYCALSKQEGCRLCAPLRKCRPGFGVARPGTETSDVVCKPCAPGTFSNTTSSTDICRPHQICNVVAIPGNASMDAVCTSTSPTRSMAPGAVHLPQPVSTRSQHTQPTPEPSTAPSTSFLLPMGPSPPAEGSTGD

T2: Human TNFR2 expressed on cells (CHO-hTNFR2 cells) (human, UniProt P20333 23-461)
T2 construct: also called CHO cells overexpressing human TNFR2; human TNFR2 reporter cells (HEK293)
T2 sequence: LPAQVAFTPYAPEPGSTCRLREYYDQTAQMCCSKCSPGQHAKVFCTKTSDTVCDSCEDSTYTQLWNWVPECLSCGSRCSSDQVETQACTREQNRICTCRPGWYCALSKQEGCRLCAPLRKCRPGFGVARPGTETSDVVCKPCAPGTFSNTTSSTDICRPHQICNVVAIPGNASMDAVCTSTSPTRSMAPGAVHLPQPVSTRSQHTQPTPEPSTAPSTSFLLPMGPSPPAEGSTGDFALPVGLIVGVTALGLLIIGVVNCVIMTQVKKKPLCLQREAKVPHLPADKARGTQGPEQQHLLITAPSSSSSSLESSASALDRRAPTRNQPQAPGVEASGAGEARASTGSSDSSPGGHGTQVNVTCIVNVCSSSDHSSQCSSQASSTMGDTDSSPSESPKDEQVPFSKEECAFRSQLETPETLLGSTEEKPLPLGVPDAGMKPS

B1: UC2.3.11 (S4-2 1D10-1G9-1G3) scFv (scFv)
scFv: QVQLLESGGGLVQPGGSLRLSCAVSGFTFSTYAMSWIRQAPGKGLEWVSIISDGGDATVYADSVKGRFTISRDNSKNTLYLQMNSLRAEDTAVYYWARDGTSAAAFDSWGQGTLVTVSSANSGGSTSGSGKPGSGEGSSGSARDIQMTQSPSSLSASVGDRVTITCQASQDITNFLNWYQQKPGKAPKLLIYDASTLQTGVPSRFSGSGSGTDFTFTISSLQPEDIATYYCQQSDSYPITFGQGTKVEIKR
B2: UC2.3.15 (S4-2 1D10-1G9-1H12) scFv (scFv)
scFv: B1 scFv
B3: UC2.3.12 (S4-2 1D10-1G9-1H1) scFv (scFv)
scFv: B1 scFv with G16D, V24A, S75N, K76R, W96C, N121S, D213N
B4: UC2.3.3 (S4-2 1D10-1G9-1F10) scFv (scFv)
scFv: B1 scFv with V24A, S75N, K76R, W96C, N121S
notes: also called UC2.3.3 (monomer)
B5: UC2.3.13 (S4-2 1D10-1G9-1G11) scFv (scFv)
scFv: B1 scFv with G8V, A57V, W96C, G100R, T116S, V117D, N121S, A142S, T215N
B6: UC2.3.9 (S4-2 1D10-1G9-1F12) scFv (scFv)
scFv: B1 scFv with V24A, S75N, K76R, W96C, N121S, Q167H
B7: UC2.3.14 (S4-2 1D10-1G9-1H11) scFv (scFv)
scFv: B1 scFv with C22Y, V24A, G42R, W96C, G100R, N121S
B8: UC2.3.10 (S4-2 1D10-1G9-1G2) scFv (scFv)
scFv: B1 scFv with C22Y, V24A, W96C, G100R, N121S
B9: UC1.3 (S4-2 1B5-1B3) scFv (scFv)
scFv: QVQLLESGGGLVQPGGSLRLSCAASGFSFTSYAMTWVRQAPGKGLEWVSGISGDGAATFYADSVKGRFTISRDNSKNTLYLQMNSLRAEDTAVYYCARQSQYVGGFDYWGQGTLVTVSSASSGGSTSGSGKPDSGEGSSGSARQSVLTQPPSVSGAPGQRVTISCTGSSSNFGAGYGVHWYQQLPGTAPKLLIHGNTNRPSGVPDRFSGFKSGTSASLAITGLQAEDEADYYCQSYDSSLSGWVFGGGTKLTVLG
B10: UC1.2 (S4-2 1B5-1A5) scFv (scFv)
scFv: B9 scFv with D54G
B11: UC5 (8-2A10) scFv (scFv)
scFv: QVQLLESGGGLVQPGGSLRLSCAASGFTFNTYAMTWVRQAPGKGLEWVSAISDSGGDTFYADSVKGRFTISRDNSKNTLYLQMNSLRAEDTAVYYCARDGTYAARFDYWGQGTLVTVSSASSGGSTSGSGKPGSGEGSSGSARDIQMTQSPSSLSASVGDRVTITCQASQDISNYLNWYQQKPGKAPKLLIYDASTLETGVPSRFSGSGSGTDFTFTISSLQPEDIATYYCQQSDSFPITFGQGTKVEIKR
notes: Soluble scFv
B12: UC3 (S4-2 1E5) scFv (scFv)
scFv: QVQLLESGGGLVQPGGSLRLSCAASGFSFSSYAMSWVRQAPGKGLEWVSGISAGGGETFYADSVKGRFTISRDNSKNTLYLQMNSLRAEDTAVYYCARVHPISYGFDIWGQGTLVTVSSASSGGSTSGSGKPGSGEGSSGSARDIQMTQSPSSLSASVGDRVTITCQASQDIKKYLNWYQQKPGKAPKLLIYDASTLQTGVPSRFSGSGSGTDFTFTISSLQPEDIATYYCQQSDNTPVTFGQGTKVEIKR
notes: Soluble scFv
B13: UC6 (9-1A6) scFv (scFv)
scFv: QVQLVQSGAEVKKPGSSVKVSCKASGDSFNNFGISWVRQAPGQGLEWMGGIVPVLGIATYAQKFQGRVTITADESTSTAYMELSSLRSEDTAVYYCARGSAWYDGSFQYWGQGTLVTVSSASSGGSTSGSGKPGSGEGSSGSAREIVLTQSPGTLSLSPGERATLSCRASQSVSSTFLAWYQQKPGQAPRLLIYDASTRATGIPDRFSGSDSGTDFTLTISRLEPEDFAVYYCQQYDSWPFTFGQGTKVEIKR
notes: Soluble scFv
B14: UC7 (9-1B5) scFv (scFv)
scFv: QVQLVQSGAEVKKPGSSVKVSCKASGDTFSSYGVSWVRQAPGQGLEWMGRIVPVFGIANYAQKFQGRVTITADESTSTAYMELSSLRSEDTAVYYCARQSPYVTYSSYYFDYWGQGTLVTVSSASSGGSTSGSGKPGSGEGSSGSAREIVLTQSPGTLSLSPGERATLSCRASQSVSNNFLAWYQQKPGQAPRLLIYDASTRATGIPDRFSGSGSGTDFTLTISRLEPEDFAVYYCQQYGSWPITFGQGTKVEIKR
notes: Soluble scFv
B15: UC 8 (9-2A4) scFv (scFv)
scFv: QVQLVQSGAEVKKPGSSVKVSCKASGDTFSNYGFSWVRQAPGQGLEWMGGIVPVFGIATYAQKFQGRVTITADESTSTAYMELSSLRSEDTAVYYCARDYSYYPDDPRYFEYWGQGTLVTVSSASSGGSTSGSGKPGSGEGSSGSAREIVLTQSPGTLSLSPGERATLSCRASQSVSSTFLAWYQQKPGQAPRLLIYAASSRATGIPDRFSGSGSGTDFTLTISRLEPEDFAVYYCQQYGSWPLTFGQGTKVEIKR
notes: Soluble scFv
B16: UC2.3.3 scFv (dimer) (scFv)
scFv: B1 scFv with V24A, S75N, K76R, W96C, N121S
notes: also called UC2.3.3 (dimer)
B17: UC2 (S4-2 1D10) scFv (scFv)
scFv: B1 scFv with V24A, I37V, V59F, W96C, N121S
B18: UC1 (S4-2 1B5) scFv (scFv)
scFv: B9 scFv with D54G, D133G, F172I, H194Y

Where a chain is given by its changes, count along the chain named.

The first experiment has as its target T1, recombinant human TNFR2-hFc protein. Kind of experiment: flow cytometry; TNFR2-Fc binding to scFv displayed on yeast (FIGS. 6A-6C). For orientation: Flow cytometry measures light scatter and fluorescence of single cells or particles in a stream.
Consider B1, for which the “fold higher affinity (vs parental scFv)” value came to 10 fold.
The same measure, in the same setting: the same measure for B2: 10 fold; for B3: 10 fold; for B4: 10 fold.
Same read-out and setting: under B5 stands 10 fold; under B6, 10 fold.
Consider B7, for which the “fold higher affinity (vs parental scFv)” value is 10 fold.
Same read-out and setting: under B8 stands 10 fold.
For B9, the “fold higher affinity (vs parental scFv)” value amounted to 10 fold.
As for B10, the “fold higher affinity (vs parental scFv)” value came to 10 fold.

For the next experiment, the target named is T2, Human TNFR2 expressed on cells …. Kind of experiment: flow cytometry; soluble scFv inhibiting TNF (1 nM) binding to CHO-hTNFR2 cells (FIG. 3).
Take B11: the IC50 was determined as 746 nM.
Still for that read-out and setting: under B12 stands 110 nM; under B13, 69.7 nM; under B14, 25.6 nM.
The same measure, in the same setting: the same measure for B15: 21.5 nM.

A further experiment shares this target. The experiment can be described thus: flow cytometry; soluble scFv inhibiting TNF (1 nM) binding to CHO-hTNFR2 cells (FIG. 7).
The molecule B4 displayed an IC50 of 3.94 nM.
Consider B16, for which the IC50 turned out to be 1.72 nM.

In another experiment the target is T1, recombinant human TNFR2-hFc protein. Kind of experiment: flow cytometry; hTNFR2-Fc binding to scFv displayed on yeast; one site binding fit (FIG. 4).
For B17, the Kd worked out at 42.8 nM.
Same read-out and setting: the same measure for B18: 18.1 nM.

The next experiment shares this target. The experiment can be described thus: flow cytometry; hTNFR2-Fc binding to scFv displayed on yeast; one site binding fit (FIG. 6A).
Regarding B9, the Kd was determined as 0.64 nM.
The same measure, in the same setting: the same measure for B10: 0.57 nM.

Another experiment shares this target. The experiment can be described thus: flow cytometry; hTNFR2-Fc binding to scFv displayed on yeast; one site binding fit (FIG. 6B).
Consider B1, for which the Kd stood at 1.52 nM.
Still for that read-out and setting: the same measure for B3: 1.98 nM.
Same read-out and setting: the same measure for B4: 1.35 nM; for B6: 1.79 nM.
B8: the dissociation constant (Kd) was 0.63 nM.

Another experiment shares this target. The experiment can be described thus: flow cytometry; hTNFR2-Fc binding to scFv displayed on yeast; one site binding fit (FIG. 6C).
Consider B2, for which the Kd was found to be 0.78 nM.
Same read-out and setting: the same measure for B5: 0.87 nM; for B7: 0.65 nM.

Another experiment has as its target T2, Human TNFR2 expressed on cells …. Kind of experiment: flow cytometry; soluble scFv inhibiting TNF (1 nM) binding to CHO-hTNFR2 cells (FIGS. 5A-5B).
In the case of B17, the IC50 stood at 39.6 nM.
The molecule B18 had an IC50 of 4.44 nM.

For another experiment the target is unchanged. The experiment can be described thus: flow cytometry, titration of soluble scFv (up to 300 nM) on CHO-hTNFR2 cells; one site binding non-linear fit.
In the case of B11, binding was put at a Kd of 14.5 nM.
On to B12, for which binding was put at a Kd of 19.3 nM.
In the case of B17, the Kd worked out at 14.4 nM.
The same measure, in the same setting: under B13 stands 42 nM; under B14, 48.9 nM; under B18, 8.17 nM.
Still for that read-out and setting: the same measure for B15: 13.4 nM.

Values taken from US20220281990A1 (MERRIMACK PHARMACEUTICALS, published 2022).
